Measured values published in PMC3638900.

Molecular target: HB36.4 I58E displayed on the yeast surface
Assay: flow cytometry on cells

A/Vietnam/1203/2004 (H5N1) hemagglutinin, biotinylated (natural protein)
net change in specificity (H1 over H5) against HB36.4: > 30 fold
